Assays:
Experiment in all cases: IEDB peptide-MHC binding, purified MHC/competitive/radioactivity; ≥ and ≤ were set here for values at or beyond the usual limits of such assays
Conditions in all cases: source organism: Bordetella pertussis
HLA-B*35:01 = target: HLA-B*35:01
HLA-B*57:01 = target: HLA-B*57:01
HLA-B*53:01 = target: HLA-B*53:01
HLA-B*44:03 = target: HLA-B*44:03
HLA-A*02:01 = target: HLA-A*02:01

## YTLRYLASY
HLA-B*35:01
  IC50: 3.52 µM
HLA-B*57:01
  IC50: 0.00076 µM

## DAGHEHDTW
HLA-B*57:01
  IC50: 32.9 µM

## CPSSLGNGV
HLA-B*53:01
  IC50: 26.4 µM

## KSYTLRYLA
HLA-B*57:01
  IC50: 0.263 µM

## QADRDFVWY
HLA-B*44:03
  IC50: 37.7 µM
HLA-B*53:01
  IC50: 27.2 µM

## EATEGDATL
HLA-B*35:01
  IC50: 69.9 µM
HLA-B*53:01
  IC50: 46.1 µM

## KAGKLSATG
HLA-B*57:01
  IC50: 45.5 µM

## LSSPSAITV
HLA-B*57:01
  IC50: ≥ 70.4 µM

## TSPYDGKYW
HLA-B*57:01
  IC50: ≥ 70.4 µM

## GVGLASTLW
HLA-B*53:01
  IC50: 12.6 µM
HLA-B*57:01
  IC50: 18.8 µM

## RGFAQRQQL
HLA-B*57:01
  IC50: 54.3 µM

## LLHHILPIL
HLA-A*02:01
  IC50: 1.47 µM

## SVAPNALAW
HLA-B*35:01
  IC50: 56.3 µM
HLA-B*53:01
  IC50: 0.983 µM

## RAGLSPATW
HLA-B*53:01
  IC50: 27.2 µM

## YFEPGPTTD
HLA-B*53:01
  IC50: 69.9 µM

## LTWLAILAV
HLA-A*02:01
  IC50: 4.09 µM
